B1: Aerobic respiration control sensor protein ArcB (Escherichia coli (strain K12)), P0AEC3 (parent)
chain: MKQIRLLAQYYVDLMMKLGLVRFSMLLALALVVLAIVVQMAVTMVLHGQVESIDVIRSIFFGLLITPWAVYFLSVVVEQLEESRQRLSRLVQKLEEMRERDLSLNVQLKDNIAQLNQEIAVREKAEAELQETFGQLKIEIKEREETQIQLEQQSSFLRSFLDASPDLVFYRNEDKEFSGCNRAMELLTGKSEKQLVHLKPADVYSPEAAAKVIETDEKVFRHNVSLTYEQWLDYPDGRKACFEIRKVPYYDRVGKRHGLMGFGRDITERKRYQDALERASRDKTTFISTISHELRTPLNGIVGLSRILLDTELTAEQEKYLKTIHVSAVTLGNIFNDIIDMDKMERRKVQLDNQPVDFTSFLADLENLSALQAQQKGLRFNLEPTLPLPHQVITDGTRLRQILWNLISNAVKFTQQGQVTVRVRYDEGDMLHFEVEDSGIGIPQDELDKIFAMYYQVKDSHGGKPATGTGIGLAVSRRLAKNMGGDITVTSEQGKGSTFTLTIHAPSVAEEVDDAFDEDDMPLPALNVLLVEDIELNVIVARSVLEKLGNSVDVAMTGKAALEMFKPGEYDLVLLDIQLPDMTGLDISRELTKRYPREDLPPLVALTANVLKDKQEYLNAGMDDVLSKPLSVPALTAMIKKFWDTQDDEESTVTTEENSKSEALLDIPMLEQYLELVGPKLITDGLAVFEKMMPGYVSVLESNLTAQDKKGIVEEGHKIKGAAGSVGLRHLQQLGQQIQSPDLPAWEDNVGEWIEEMKEEWRHDVEVLKAWVAKATKK
B2: Phage shock protein B (Escherichia coli (strain K12)), P0AFM9 (parent)
chain: MSALFLAIPLTIFVLFVLPIWLWLHYSNRSGRSELSQSEQQRLAQLADEAKRMRERIQALESILDAEHPNWRDR
partner: B1 chain
B3: Aerobic respiration control sensor protein ArcB (Escherichia coli (strain K12)), P0AEC3 (parent)
chain: B1 chain
partner: B2 chain

Variants of: B1
Details: with pspa_ecoli pspA

**Q.** Which “effect of a mutation on the interaction” value does the source give for L87A;L90A;L94A;M97A here?
**A.** Its value is “decreasing interaction strength”.

Variants of: B2
Details: with arcb_ecoli arcB, P0AEC3

**Q.** With L10A;L15A;L18A as the variant, how does the “effect of a mutation on the interaction” value read?
**A.** Its value is “decreasing interaction strength”.

Variants of: B3
Details: with pspb_ecoli pspB, P0AFM9

**Q.** L87A;L90A;L94A;M97A was tested. Which “effect of a mutation on the interaction” value did it give?
**A.** Its value is “decreasing interaction strength”.

Source: IntAct's records for PubMed 19682256
